Earlier results in PMC8869670.

Target: Thioredoxin (Homo sapiens) (UniProt P10599)
Sequence (P10599 2-105): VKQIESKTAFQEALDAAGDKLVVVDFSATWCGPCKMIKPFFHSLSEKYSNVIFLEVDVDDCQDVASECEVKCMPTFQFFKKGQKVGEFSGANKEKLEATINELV

p53 (from UniProt P04637)
Kd: 900 nM
